Results on 1 protein are retold here after publication PMC4395114 (PLoS Pathogens, 2015).

This data set deals with the molecule itself. Description: SEC + other: negative stain electron microscopy.

B1: RNA-free recombinant WT NP (NΔ7NP, C-terminal His tag), influenza A/WSN/33 (natural protein)
chain: RSYEQMETDGERQNATEIRASVGKMIGGIGRFYIQMCTELKLSDYEGRLIQNSLTIERMVLSAFDERRNKYLEEHPSAGKDPKKTGGPIYRRVDGKWMRELILYDKEEIRRIWRQANNGDDATAGLTHMMIWHSNLNDATYQRTRALVRTGMDPRMCSLMQGSTLPRRSGAAGAAVKGVGTMVMELIRMIKRGINDRNFWRGENGRRTRIAYERMCNILKGKFQTAAQRAMVDQVRESRNPGNAEFEDLIFLARSALILRGSVAHKSCLPACVYGPAVASGYDFEREGYSLVGIDPFRLLQNSQVYSLIRPNENPAHKSQLVWMACHSAAFEDLRVSSFIRGTKVVPRGKLSTRGVQIASNENMETMESSTLELRSRYWAIRTRSGGNTNQQRASSGQISIQPTFSVQRNLPFDRPTIMAAFTGNTEGRTSDMRTEIIRLMESARPEDVSFQGRGVFELSDEKAASPIVPSFDMSNEGSYFFGDNAEEYDN
With B1, the stoichiometry N (in general, the number of molecules, sites or subunits per partner or assembly) was in the range of 3 to 6.
